T1: AtSULTR4;1 ΔSTAS (Arabidopsis thaliana, UniProt Q9FY46)
T1 construct: gene SULTR4; STAS domain (residues 503-685) truncated, transmembrane domain only, C-terminal His6-tag cleaved by TEV, High Five insect cells, monomeric by SEC
T1 sequence (Q9FY46 1-502): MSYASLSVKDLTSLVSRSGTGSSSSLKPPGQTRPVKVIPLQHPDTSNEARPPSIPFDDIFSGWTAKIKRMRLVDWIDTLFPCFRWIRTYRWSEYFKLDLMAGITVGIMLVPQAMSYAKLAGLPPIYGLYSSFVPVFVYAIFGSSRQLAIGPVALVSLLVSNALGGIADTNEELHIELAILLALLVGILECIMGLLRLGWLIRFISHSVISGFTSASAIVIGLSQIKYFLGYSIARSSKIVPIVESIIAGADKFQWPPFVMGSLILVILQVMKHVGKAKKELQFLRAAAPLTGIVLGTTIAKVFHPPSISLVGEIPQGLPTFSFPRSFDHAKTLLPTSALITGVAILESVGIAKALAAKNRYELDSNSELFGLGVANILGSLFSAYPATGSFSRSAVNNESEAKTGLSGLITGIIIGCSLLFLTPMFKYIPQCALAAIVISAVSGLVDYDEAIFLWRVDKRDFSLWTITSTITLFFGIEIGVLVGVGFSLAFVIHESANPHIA


Tests used:
AtSULTR4;1 ΔSTAS = target: T1, AtSULTR4;1 ΔSTAS; assay: […]SO4 uptake into proteoliposomes, […] min; format: biochemical; settings: 13.3 µM 35SO4, pH 7.5 inside / 5.5 outside; labelled compound
[1] = target: the molecule itself; assay: cryo-EM structure; AtSULTR4;1 in GDN, 20 mM MES pH 6.0, 150 mM Na2SO4, 5 mM BME; refined with C2 symmetry; overall resolution 2.8 Å
[2] = target: the molecule itself; assay: SEC; purified protein on SRT-3C SEC-300 column, 20 mM HEPES, 150 mM NaCl, 5 mM BME, 0.01% LMNG; elution profile compared with wild type

Molecule | binding result [2] | further results
O=S(=O)(O)O [SO4^2−] | – | 35SO4 uptake into proteoliposomes, 5 min (AtSULTR4;1 ΔSTAS): ΔSTAS retains a lower level of transport activity
Arabidopsis thaliana sulfate transporter SULTR4;1 (AtSULTR4;1), wild type (natural protein, UniProt Q9FY46 24-685, looked up, A. thaliana SULTR4;1, codon-optimized gene (NCBI NM_121358.3); residues 1-69 and 645-685 are called the N- and C-termini and were not resolved; the model holds residues 70-644; Homodimer in the cryo-EM structure; also called WT; source: High Five (Trichoplusia ni) insect cells, baculovirus; purified (LMNG solubilisation, Talon cobalt resin, SEC); not shown: His6, C-terminal, cleaved) SSLKPPGQTRPVKVIPLQHPDTSNEARPPSIPFDDIFSGWTAKIKRMRLVDWIDTLFPCFRWIRTYRWSEYFKLDLMAGITVGIMLVPQAMSYAKLAGLPPIYGLYSSFVPVFVYAIFGSSRQLAIGPVALVSLLVSNALGGIADTNEELHIELAILLALLVGILECIMGLLRLGWLIRFISHSVISGFTSASAIVIGLSQIKYFLGYSIARSSKIVPIVESIIAGADKFQWPPFVMGSLILVILQVMKHVGKAKKELQFLRAAAPLTGIVLGTTIAKVFHPPSISLVGEIPQGLPTFSFPRSFDHAKTLLPTSALITGVAILESVGIAKALAAKNRYELDSNSELFGLGVANILGSLFSAYPATGSFSRSAVNNESEAKTGLSGLITGIIIGCSLLFLTPMFKYIPQCALAAIVISAVSGLVDYDEAIFLWRVDKRDFSLWTITSTITLFFGIEIGVLVGVGFSLAFVIHESANPHIAVLGRLPGTTVYRNIKQYPEAYTYNGIVIVRIDSPIYFANISYIKDRLREYEVAVDKYTNRGLEVDRINFVILEMSPVTHIDSSAVEALKELYQEYKTRDIQLAISNPNKDVHLTIARSGMVELVGKEWFFVRVHDAVQVCLQYVQSSNLEDKHLSFTRRYGGSNNNSSSSNALLKEPLLSVEK | – | stoichiometry N [1]: 2
AtSULTR4;1 D547R (natural protein, Arabidopsis thaliana, UniProt Q9FY46 24-685, looked up, A. thaliana SULTR4;1 (NCBI NM_121358.3) with the charge-reversal mutation D547R on helix alpha1 of the STAS domain; Made by QuikChange on the wild-type construct; source: High Five insect cells, baculovirus; purified following the same protocol as wild type; not shown: His6, C-terminal, cleaved) SSLKPPGQTRPVKVIPLQHPDTSNEARPPSIPFDDIFSGWTAKIKRMRLVDWIDTLFPCFRWIRTYRWSEYFKLDLMAGITVGIMLVPQAMSYAKLAGLPPIYGLYSSFVPVFVYAIFGSSRQLAIGPVALVSLLVSNALGGIADTNEELHIELAILLALLVGILECIMGLLRLGWLIRFISHSVISGFTSASAIVIGLSQIKYFLGYSIARSSKIVPIVESIIAGADKFQWPPFVMGSLILVILQVMKHVGKAKKELQFLRAAAPLTGIVLGTTIAKVFHPPSISLVGEIPQGLPTFSFPRSFDHAKTLLPTSALITGVAILESVGIAKALAAKNRYELDSNSELFGLGVANILGSLFSAYPATGSFSRSAVNNESEAKTGLSGLITGIIIGCSLLFLTPMFKYIPQCALAAIVISAVSGLVDYDEAIFLWRVDKRDFSLWTITSTITLFFGIEIGVLVGVGFSLAFVIHESANPHIAVLGRLPGTTVYRNIKQYPEAYTYNGIVIVRIDSPIYFANISYIKRRLREYEVAVDKYTNRGLEVDRINFVILEMSPVTHIDSSAVEALKELYQEYKTRDIQLAISNPNKDVHLTIARSGMVELVGKEWFFVRVHDAVQVCLQYVQSSNLEDKHLSFTRRYGGSNNNSSSSNALLKEPLLSVEK | binds | –
AtSULTR4;1 R550E (natural protein, Arabidopsis thaliana, UniProt Q9FY46 24-685, looked up, A. thaliana SULTR4;1 (NCBI NM_121358.3) with the charge-reversal mutation R550E on helix alpha1 of the STAS domain; Made by QuikChange on the wild-type construct; source: High Five insect cells, baculovirus; purified following the same protocol as wild type; not shown: His6, C-terminal, cleaved) SSLKPPGQTRPVKVIPLQHPDTSNEARPPSIPFDDIFSGWTAKIKRMRLVDWIDTLFPCFRWIRTYRWSEYFKLDLMAGITVGIMLVPQAMSYAKLAGLPPIYGLYSSFVPVFVYAIFGSSRQLAIGPVALVSLLVSNALGGIADTNEELHIELAILLALLVGILECIMGLLRLGWLIRFISHSVISGFTSASAIVIGLSQIKYFLGYSIARSSKIVPIVESIIAGADKFQWPPFVMGSLILVILQVMKHVGKAKKELQFLRAAAPLTGIVLGTTIAKVFHPPSISLVGEIPQGLPTFSFPRSFDHAKTLLPTSALITGVAILESVGIAKALAAKNRYELDSNSELFGLGVANILGSLFSAYPATGSFSRSAVNNESEAKTGLSGLITGIIIGCSLLFLTPMFKYIPQCALAAIVISAVSGLVDYDEAIFLWRVDKRDFSLWTITSTITLFFGIEIGVLVGVGFSLAFVIHESANPHIAVLGRLPGTTVYRNIKQYPEAYTYNGIVIVRIDSPIYFANISYIKDRLEEYEVAVDKYTNRGLEVDRINFVILEMSPVTHIDSSAVEALKELYQEYKTRDIQLAISNPNKDVHLTIARSGMVELVGKEWFFVRVHDAVQVCLQYVQSSNLEDKHLSFTRRYGGSNNNSSSSNALLKEPLLSVEK | binds | –
AtSULTR4;1 K353E (natural protein, Arabidopsis thaliana, UniProt Q9FY46 24-685, looked up, A. thaliana SULTR4;1 (NCBI NM_121358.3) with the charge-reversal mutation K353E on TM8 (core domain); Made by QuikChange on the wild-type construct; source: High Five insect cells, baculovirus; purified following the same protocol as wild type; not shown: His6, C-terminal, cleaved) SSLKPPGQTRPVKVIPLQHPDTSNEARPPSIPFDDIFSGWTAKIKRMRLVDWIDTLFPCFRWIRTYRWSEYFKLDLMAGITVGIMLVPQAMSYAKLAGLPPIYGLYSSFVPVFVYAIFGSSRQLAIGPVALVSLLVSNALGGIADTNEELHIELAILLALLVGILECIMGLLRLGWLIRFISHSVISGFTSASAIVIGLSQIKYFLGYSIARSSKIVPIVESIIAGADKFQWPPFVMGSLILVILQVMKHVGKAKKELQFLRAAAPLTGIVLGTTIAKVFHPPSISLVGEIPQGLPTFSFPRSFDHAKTLLPTSALITGVAILESVGIAEALAAKNRYELDSNSELFGLGVANILGSLFSAYPATGSFSRSAVNNESEAKTGLSGLITGIIIGCSLLFLTPMFKYIPQCALAAIVISAVSGLVDYDEAIFLWRVDKRDFSLWTITSTITLFFGIEIGVLVGVGFSLAFVIHESANPHIAVLGRLPGTTVYRNIKQYPEAYTYNGIVIVRIDSPIYFANISYIKDRLREYEVAVDKYTNRGLEVDRINFVILEMSPVTHIDSSAVEALKELYQEYKTRDIQLAISNPNKDVHLTIARSGMVELVGKEWFFVRVHDAVQVCLQYVQSSNLEDKHLSFTRRYGGSNNNSSSSNALLKEPLLSVEK | binds | –

Reference: PMC8298490, “Structure and function of an Arabidopsis thaliana sulfate transporter” (Nature Communications, 2021)
